{
  "source": "patent US6303357A",
  "about": "“L-α-glycerophosphate oxidase gene, recombinant DNA, and method for producing modified L-α-glycerophosphate oxidase gene” (priority 2000, dated 2001)",
  "type_in_all_cases": "biochemical, Enterococcus faecium",
  "key": {"O=P(O)(O)OCC(O)CO [1]": {"system": "O=P(O)(O)OCC(O)CO", "assay": "Km value of modified GPO Ala 225/Gly 420", "conditions": "other: Ala 225, Gly 420, 37° C., pH 7.0 activity assay", "protocol": "(§1) According to the invention, method for the measurement GPO activity is as follows unless otherwise noted.\n(§2) 300 mM Sodium (±)-1-glycerophosphate n-hydrate\n(§3) A 1.0 ml portion of a reaction solution having the above composition is put into a test tube and subjected to 5 minutes of preliminary incubation at 37° C., and then 20 μl of an enzyme solution is added thereto to carry out 5 minutes of the reaction at 37° C. After the reaction, 2.0 ml of 0.5% SDS solution is added to terminate the reaction, and calorimetric determination is carried out at a wavelength of 600 nm. An activity capable of forming 1 μmole of hydrogen peroxide within 1 minute was defined as 1 unit (U). [formula]\n(§4) The resulting cells were collected by centrifugation, washed with 10 mM Tris-HCl buffer (pH 8.0) containing 0.1 M sodium chloride and 1 mM EDTA and then suspended in a solution prepared by adding 1 mg/ml of lysozyme to 50 mM potassium phosphate buffer (pH 7.0) containing 10 mM EDTA and 0.1% Triton X-100, subsequently carrying out 2 hours of cell lysis at 4° C. After the cell lysis, this was subjected to ultrasonic disintegration and then centrifuged, and the supernatant was used as the enzyme solution to measure its enzyme activity, heat resistance and Km value.\n(§5) In addition, improvement of two or more properties was found by a combination of these mutations. […]"}, "O=P(O)(O)OCC(O)CO [2]": {"system": "O=P(O)(O)OCC(O)CO", "assay": "Km value of modified GPO Phe 130/Ala 225", "conditions": "other: Phe 130, Ala 225, 37° C., pH 7.0 activity assay", "protocol": "as §1, §2, §3, §4, §5"}, "O=P(O)(O)OCC(O)CO [3]": {"system": "O=P(O)(O)OCC(O)CO", "assay": "Km value of GPO (wild type control, E. coli DH5/pGPO97)", "conditions": "other: wild type GPO, 37° C., pH 7.0 activity assay", "protocol": "as §1, §2, §3, §4, §5"}},
  "data": [
    {"substance": "Enterococcus faecium No. 7044 L-α-glycerophosphate oxidase (GPO) variant Ala 225/Gly 420 (Enterococcus faecium DO; D212G/D427G/S17A)", "values": [
      {"measurement": "Km", "setting": "O=P(O)(O)OCC(O)CO [1]", "result": 28.8, "unit": "mM"}
    ]},
    {"substance": "Enterococcus faecium No. 7044 L-α-glycerophosphate oxidase (GPO) variant Phe 130/Ala 225 (Enterococcus faecium DO; L137F/L267F/S362A)", "values": [
      {"measurement": "Km", "setting": "O=P(O)(O)OCC(O)CO [2]", "result": 4.6, "unit": "mM"}
    ]},
    {"substance": "Enterococcus faecium No. 7044 L-α-glycerophosphate oxidase (GPO), wild type, Sequence No. 1 (Enterococcus faecium DO)", "values": [
      {"measurement": "Km", "setting": "O=P(O)(O)OCC(O)CO [3]", "result": 23.2, "unit": "mM"}
    ]}
  ]
}
